# Measured values taken from the nanobody polyreactivity screen of Harvey et al. (2022).
# Assay: yeast display, Sf9 membrane polyspecificity reagent, FACS + sequencing; frameworks hold sequencing errors
# Summary of the method: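 Genes from sorted yeast were amplified by colony PCR, read by MiSeq 2 × 250 sequencing and filtered on CDR length. These cells carried a synthetic nanobody library in Saccharomyces cerevisiae BJ5465 and were sorted by FACS into low and high (top ~1%) gates on anti-HA and streptavidin fluorescence. Polyreactivity is labelled according to the gate of origin.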
row,Sequence,polyreactivity (PSR sort gate)
1,QVQLVESGGGLVQAGGSLRLSCAASGSTFQYYAMGWYRQAPGKEREFVAAIHWDGGRTYYADSVKGRFTISRDNAKNTVYLQMNSLKPEDTAVYYCAAYTRYKMDYWGQGTQVTVSS,high polyreactivity
2,QVQLVESGGGLVQAGGSLRLSCAASGSTFQYYAMGWYRQAPGKERELFAVITGAGGTNYADSVKGRFTISRDNAKNTVYLQMNSLKPEDTAVYYCAARSPGTRWGDYDYWGQGTQVTVSS,low polyreactivity
3,QVQLVESGGGLVQAGGSLRLSCAASGSTFQYYAMGWYRQAPGKERELVAAISAGGTRTYYADSVKGRFTISRDNAKNTVYLQMNSLKPEDPAVYYCNADDLHFVARYDYWGQGTQVTVSS,low polyreactivity
4,QVQLVESGGGLVQAGGSLRLSCAASGSTFQYYAMGWYRQAPGKERELVAAISYRGSTYYADSVKGRFTISRDNAKNTVYLQMNSLKPEDTAVYYCAAVNRPWYSFGYGYWGQGTQVTVSS,high polyreactivity
5,QVQLVESGGGLVQAGGSLRLSCAASGSTFQYYAMGWYRQAPGKERELVASITWGGDNTDYADSVKGRFTISRDNAKNTVYLQMNSLKPEDTAVYYCNTVRSNKMDYWGQGTQVTVSS,high polyreactivity
6,QVQLVESGGGLVQAGGSLRLSCAASGSTFQYYDMGWYRQAPGKERELVASITGSGDSTYYADSVKGRFTISRDNAKNTVYLQMNSLKPEDTAVYYCAAQNTWSGDYDYWGQGTQVTVSS,low polyreactivity
7,QVQLVESGGGLVQAGGSLRLSCAASGSTFRDNAMGWYRQAPGKERELVAAISRSGARTYYADSVKGRFTISRDNAKNTVYLQMNSLKPEDTAVYYCNAVWRVKYRRGLDYWGQGTQVTVSS,high polyreactivity
8,QVQLVESGGGLVQAGGSLRLSCAASGSTFRDYAMGWYRQAPGKERELVAAISNSGGRTYYADSVKGRFTISRDNAKNTVYLQMNSLKPEDTAVYYCNAGRQTKWGQGTQVTVSS,high polyreactivity
9,QVQLVESGGGLVQAGGSLRLSCAASGSTFRDYAMGWYRQAPGKERELVAAITQNGGSTYYADSVKGRFTISRDNAKNSVYLQMNSLKPEDTAVYDCAADSDWFVWQEDYWGQGTQVTVSS,low polyreactivity
10,QVQLVESGGGLVQAGGSLRLSCAASGSTFREYTMGWYRQAPGKERELVAAITNSGGSTYYADSVKGRFTISRDNAKNTVYLQLNSLKPEDTAVYYCAAEVGIVDYDYWGQGTQVTVSS,low polyreactivity
11,QVQLVESGGGLVQAGGSLRLSCAASGSTFRFYAMGWYRQAPGKERELVAAITWRSGRTSYADSVKGRFTISRDNAKNTVYLQMNSLKPDDTAVYYCAATSVYRYDYWGQGTLVTVSS,high polyreactivity
12,QVQLVESGGGLVQAGGSLRLSCAASGSTFRFYAMGWYRQAPGKERELVAGITGSGDSTYYADSVKGRFTISRDNAKNTVYLQMNSLKPEDTAVYYCNKRVVYRSSQFDYWGQGTQVTVSS,low polyreactivity
13,QVQLVESGGGLVQAGGSLRLSCAASGSTFRFYTMGWYRPAPGKERELVATISRGGSTYADSVKGRFTISRDNAKNTVYLQMYSLKPEDTAVYYCAKRGYSSWPYDYWGQGTQVSVSS,low polyreactivity
14,QVQLVESGGGLVQAGGSLRLSCAASGSTFRGFAMGWYRQAPGKERELVAAISSRGASTHYADSVKGRFTISRDNANNTVYLQLTSLKPEDTAVYYCNKRQVFVSTGVYEFDYWGQGTQVTVSS,low polyreactivity
15,QVQLVESGGGLVQAGGSLRLSCAASGSTFRGNAMGWYRQAPGKERELVAAITGRGGRTYYADSVKGRFTISRDNAKNTVYLQMNSLKPEDTAVYYCAAYSRYKPYGITAYDYWGQGTQVTVSS,high polyreactivity
16,QVQLVESGGGLVQAGGSLRLSCAASGSTFRGNAMGWYRQAPGKERELVASITGGGSTNYADSVKGRFTISRDNAKNTVYLQMNSLKPEDTAVYYCAADWGADFYGGQGTQVTVSS,low polyreactivity
17,QVQLVESGGGLVQAGGSLRLSCAASGSTFRGYAMGWYRQAPGKERELVAAITRGGSTYYADSVKGRFTISRDNAKNTVYLQMNSLKPEDTAVYYFYDYWGQGTQVTVSS,low polyreactivity
18,QVQLVESGGGLVQAGGSLRLSCAASGSTFRGYAMGWYRQAPGKERELVAAITRSGGSTYYADSVKGRFTISRDNAKNTVYLQMNSLKPEDTAVYYCNDRAFPYYRRFDYWGQGTQVTVSS,high polyreactivity
19,QVQLVESGGGLVQAGGSLRLSCAASGSTFRGYAMGWYRQAPGKERELVAAITYISDSTYYADSVKGRFTLSRDNAKNTVYLQMNSLKPEDTAVYYCNAYYDGDWRYTSQETGDHWGQGTQVTVSS,low polyreactivity
20,QVQLVESGGGLVQAGGSLRLSCAASGSTFRGYAMGWYRQAPGKERELVASISWNGTSTYYADSVKGRFTISRDNAKNTVYLQMNSLKPEDTAVYYCNVRFNYRGTYDYWGQGTQVTVSS,low polyreactivity
21,QVQLVESGGGLVQAGGSLRLSCAASGSTFRGYDMGWYRQAPGKERELVAAITTSGGTTYYADSVKGRFTISRDNAKNTVYLQMNSLKPEDTAVYYCAARYPRAGVPRRPTAYVRYGYWGQGTQVTVSS,high polyreactivity
22,QVQLVESGGGLVQAGGSLRLSCAASGSTFRGYVMGWYRQAPGKERELVAAISSGGRTYYADSVKGRFTISRDNAKNTVYLQMNSLKPEDTAVYYCNSNGRDVYYNWAYDYWGQGTQVTVSS,high polyreactivity

row,Sequence,polyreactivity (PSR sort gate)
1,QVQLVESGGGLVQAGGSLRLSCAASGSTFRHNAMGWYRQGPGKERELVATIRTSGGTTYYADSVKGRFTISRDNAKNTVYLQMNSLKPEDTAVYYCAAVSYLFLYQGYPIAYPMYYWGQGTQVTVSS,low polyreactivity
2,QVQLVESGGGLVQAGGSLRLSCAASGSTFRINAMGWYRQAPGKERELVADINSGGNTTYADSVKGRFTISRDNAKNTVYFQMNSLKPEDTAVYYCAAAPVFDLWVFLLDYGYDYWGQGTQVTVSS,low polyreactivity
3,QVQLVESGGGLVQAGGSLRLSCAASGSTFRINAMGWYRQAPGKERELVADINSGGNTTYADSVKGRFTISRDNAKNTVYLQMNSLKPEDTAVYYCAADPVFDLWEFLLDYGYDYWGQGTQVTVSS,low polyreactivity
4,QVQLVESGGGLVQAGGSLRLSCAASGSTFRIYAMGLYRQAPGKERELVAAIRRSGGSTYYADSVKGRFTISRDNAKNTVYLQMNSLKPEDTAVYYCAADLYYQAPGYQDRYRHSRYEYWGQGTQVTVSS,high polyreactivity
5,QVQLVESGGGLVQAGGSLRLSCAASGSTFRKDAMGWYRQAPGKERELVAAISSSGGDTYYADSVKGRFTISRDNAKNTVYLQMNSLKPEDTAVYYCNTKRPYRVYFRYGYWGQGTQVTVSS,high polyreactivity
6,QVQLVESGGGLVQAGGSLRLSCAASGSTFRKNAMGWYRQAPGKERELVAAITYSGGGTYYADSVKGRFTISRDNAKNTVYLQMNSLKPEDTAVYYCAAERNKYAPYYYWGQGTQVTVSS,high polyreactivity
7,QVQLVESGGGLVQAGGSLRLSCAASGSTFRKYAMGWYRQAPGTEREFVAAITWSTGTTYYADSVKGRFTISRDNAKNTVYLQMNSLKPEDTAVYYCAADSQPPHELYESIEHESWGQGTQVTVSS,low polyreactivity
8,QVQLVESGGGLVQAGGSLRLSCAASGSTFRKYVMGWYRQAPGKERELDAGITSRGGSTYYADSVKGRFTISRDNAKNTVYLQMNSLKPEDSAVYYCAKRAYGTALYRGYGYWGQGTQVPVSS,low polyreactivity
9,QVQLVESGGGLVQAGGSLRLSCAASGSTFRLNAMGWYRQAPGKERELVAAISRSTGTTHYADSVKGRFTISRDNAKNTVYLQMNSLKPEDTAVYYCATDRAKWHKNGDLGYWGQGTQVTVSS,low polyreactivity
10,QVQLVESGGGLVQAGGSLRLSCAASGSTFRLNAMGWYRQAPGKERELVAAISWTGGSTYYADSVKGRFTISRDNAKNTVYLQMNSLKPEDTAVYYCAADWWQGTSHYWGGAYNYWGQGTQVTVSS,low polyreactivity
11,QVQLVESGGGLVQAGGSLRLSCAASGSTFRLYAMGCYRPAPGKERELVAVISRSGGRTYADSVKGRFTISRDNAKNTVYLQMNSLKPEDTAVYYCAKARHKSPTYTHDSWGQGTQVTVSS,high polyreactivity
12,QVQLVESGGGLVQAGGSLRLSCAASGSTFRLYAMGWYRQAPGKERELVAAISSRGGTTYYADSVKGRFTISRDNAKNTVYLQMNSLKPEDTAVYYCAAPRASQYGDDYWGHGTQVTVSS,high polyreactivity
13,QVQLVESGGGLVQAGGSLRLSCAASGSTFRLYAMGWYRQAPGKERELVAVISRSGGRTYADSVKGRFTISRDNAKNTVYLQMNSLKPEDTAVYYCAKARHKSPTYTHDSWGQGTQVTVSS,high polyreactivity
14,QVQLVESGGGLVQAGGSLRLSCAASGSTFRNYAMGWSRQAPGKERELVAAISGSGGRTKYADSVKGRFTISRDNAKNTVYLQMNSLKPEDTAVYYWNARFPDWALSEISHSTTYGLWGQGTLVTVSS,low polyreactivity
15,QVQLVESGGGLVQAGGSLRLSCAASGSTFRPYAMGWYREAPGKERELVAAITSTGGSTYYADSVKGRFTISRDNAKNSVSLQMNSLKPDDTAVYYCAAPLVRYAGPYDYWGQGTQVTVSS,low polyreactivity
16,QVQLVESGGGLVQAGGSLRLSCAASGSTFRPYAMGWYRQAPGKERELLAAISSGDTTDYADSVKGRFTISRDNAKNTVYLQMNSLKPEDNAVYYCATVFNDLTVYEYWSRFDYWGPGTQVTVSS,low polyreactivity
17,QVQLVESGGGLVQAGGSLRLSCAASGSTFRPYAMGWYRQAPGKERELVAAITSTGGSTYYADSVKGRFTISRDNAKNTVYLQMNSLKPEDTAVYYCAAPLVRYAGPYDYWGQGTQVTVSS,low polyreactivity
18,QVQLVESGGGLVQAGGSLRLSCAASGSTFRQYAMGWYRQAPGKERELVAAIRGRDGSTYYADSVKGRFTISRDNAKNTVYLQMNSLKPEDTAVYYCNVVARGVSPGYDYWGQGTQVTVSS,high polyreactivity
19,QVQLVESGGGLVQAGGSLRLSCAASGSTFRQYAMGWYRQAPGKERELVAAISSGGRTNYADSVKGRFTISRDNAKNTVYLQMNSLKPEDTAVYYCASDIRRRVPVRGYYYWGQGTQVTVSS,high polyreactivity
20,QVQLVESGGGLVQAGGSLRLSCAASGSTFRRYAMGWYRQAPGKERELVAAIRQRGTSTYYADSVKGRFTISRDNAKNTVYLQMNSLKPEDTAVYYCAAGPSLWLFNSWGQGTQVTVSS,high polyreactivity
21,QVQLVESGGGLVQAGGSLRLSCAASGSTFRRYAMGWYRQAPGKERELVAAITSTDVNTYYADSVKGRFTISRDNAKNTVYLQMNSLKPEDTAVYYCAAVYLGYYGVSDMEYWGQGTQVTVSS,high polyreactivity
